Experimental data from patent US11524046B2, “Biofilm prevention, disruption and treatment with bacteriophage lysin” (priority 2012, dated 2022).

Experiments:
[1] = test system: Staphylococcus epidermidis; test: MIC of PlySs2, susceptible and non-susceptible bacterial strains; format: cell-based; conditions: Staphylococcus epidermidis (11)
Streptococcus mutans = test: as above; format: cell-based; conditions: Streptococcus mutans (12)
biofilms of BAA-42 MRSA = test: Biofilm eradication in 24-well plates, crystal violet staining; format: cell-based, S. aureus
[2] = test system: S. aureus MRSA strain BAA-42; test: Biofilm prevention assay, 24 well plate, crystal violet; format: cell-based; conditions: added with bacteria, 6 hours
[3] = test system: MRSA strains CFS 553 (ATCC 43300) and CFS 992 (JMI 5381) biofilms; test: Catheter biofilm titration of additional MRSA strains, methylene blue staining; format: cell-based, S. aureus; conditions: 4 hours
Enterococcus faecalis = Enterococcus faecalis (17)
Enterococcus faecium = Enterococcus faecium (5)
Acinetobacter baumannii = Acinetobacter baumannii (8)
Escherichia coli = Escherichia coli (6)
[4] = test system: MRSA biofilms grown on catheters (strain ATCC BAA-42); test: Catheter biofilm eradication in vitro, methylene blue staining
[5] = test system: MRSA biofilms grown on catheters (strain ATCC BAA-42); test: Catheter biofilm residual CFU, BacTiter-Glo luciferase estimate

B1: PlySs2: bacteriophage lysin derived from Streptococcus suis, amino acid sequence of FIG. 5 / SEQ ID NO: 1; CHAP and SH3 domains (protein, listed as Streptococcus suis)
chain: MTTVNEALNNVRAQVGSGVSVGNGECYALASWYERMISPDATVGLGAGVGWVSGAIGDTISAKNIGSSYNWQANGWTVSTSGPFKAGQIVTLGATPGNPYGHVVIVEAVDGDRLTILEQNYGGKRYPVRNYYSAASYRQQVVHYITPPGTVAQSAPNLAGSRSYRETGTMTVTVDALNVRRAPNTSGEIVAVYKRGESFDYDTVIIDVNGYVWVSYIGGSGKRNYVATGATKDGKRFGNAWGTFK
- MIC 50% [1]: 128 µg/mL
- MIC 90% [1]: 512 µg/mL
- MIC Range [1]: 4 to 512 µg/mL
- MIC 50% (Streptococcus mutans): 64 µg/mL
- MIC 90% (Streptococcus mutans): 256 µg/mL
- MIC Range (Streptococcus mutans): 2 to 256 µg/mL
- biofilm dissolution (biofilms of BAA-42 MRSA; 3.2 μg/ml (1/10×MIC), 4 hours): Significant dissolution
- time by which full clearance was observed (biofilms of BAA-42 MRSA; 0.01×MIC): ≤ 24 h
- biofilm clearance (biofilms of BAA-42 MRSA; 0.01×MIC, 4 hours): partial clearance
- time by which the biofilm is cleared (biofilms of BAA-42 MRSA; 0.1×MIC): ≤ 4 h
- biofilm dissolution (biofilms of BAA-42 MRSA; 0.32 (1/100×MIC), 4 hours): some dissolution
- time by which the biofilm is cleared (biofilms of BAA-42 MRSA; 1×MIC 32 μg/ml): ≤ 2 h
- prevention of biofilm formation ([2]; 0.1×MIC): effectively and completely prevent
- prevention of biofilm formation ([2]; 1×MIC (32 ug/ml)): effectively and completely prevent
- catheter biofilm eradication ([3]; CFS 553 (ATCC 43300), 0.01×MIC): significantly reduced
- catheter biofilm eradication ([3]; CFS 553 (ATCC 43300), 10×MIC, 1×MIC, and 0.1×MIC): eradicated and fully dispersed
- catheter biofilm eradication ([3]; CFS 992 (JMI 5381), 0.01×MIC): significantly reduced
- catheter biofilm eradication ([3]; CFS 992 (JMI 5381), 10×MIC, 1×MIC, and 0.1×MIC): eradicated and fully dispersed
- MIC 50% (Enterococcus faecalis): >512 µg/mL
- MIC 90% (Enterococcus faecalis): >512 µg/mL
- MIC 50% (Enterococcus faecium): >512 µg/mL
- MIC 90% (Enterococcus faecium): >512 µg/mL
- MIC 50% (Acinetobacter baumannii): >512 µg/mL
- MIC 90% (Acinetobacter baumannii): >512 µg/mL
- MIC Range (Acinetobacter baumannii): >512 µg/mL
- MIC 50% (Escherichia coli): >512 µg/mL
- MIC 90% (Escherichia coli): >512 µg/mL
- MIC Range (Escherichia coli): >512 µg/mL
- time of full removal of stainable biofilm ([4]; 1×MIC (32 ug/mL)): ≤ 60 min
- biofilm clearance from the catheter ([4]; 1×MIC, 24 hours): completely cleared
- CFUs remaining in catheter biofilm ([5]; 1×MIC, 24 hours, 100 CFU/ml is the limit of detection): 100 CFU/ml
- lowest concentration active at removing biofilm bacteria ([5]; titration, CFU): 0.01 ×MIC
